From patent US20240010735A1 (EISAI R AND D MANAGEMENT, published 2024)

T1: human EphB4 extracellular region-SEAP-His protein (human, UniProt P54760 16-539)
T1 construct: extracellular domain; also called Eph receptor extracellular region-SEAP-His protein; not shown: secretory alkaline phosphatase (SEAP); histidine tag
T1 sequence (looked up): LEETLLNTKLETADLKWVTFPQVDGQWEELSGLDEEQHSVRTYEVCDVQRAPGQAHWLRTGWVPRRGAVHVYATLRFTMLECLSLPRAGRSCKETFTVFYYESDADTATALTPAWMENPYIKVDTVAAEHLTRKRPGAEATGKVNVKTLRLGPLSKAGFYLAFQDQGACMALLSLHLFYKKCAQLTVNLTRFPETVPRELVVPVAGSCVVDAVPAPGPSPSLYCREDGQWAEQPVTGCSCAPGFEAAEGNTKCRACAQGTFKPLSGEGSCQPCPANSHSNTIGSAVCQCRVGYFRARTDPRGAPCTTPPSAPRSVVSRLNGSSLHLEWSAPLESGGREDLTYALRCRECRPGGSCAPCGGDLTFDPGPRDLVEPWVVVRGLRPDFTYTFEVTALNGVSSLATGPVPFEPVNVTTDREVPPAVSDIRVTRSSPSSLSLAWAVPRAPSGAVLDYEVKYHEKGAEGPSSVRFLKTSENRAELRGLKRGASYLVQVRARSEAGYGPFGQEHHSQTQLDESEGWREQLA

T2: human EphA1 extracellular region-SEAP-His protein (human, UniProt P21709 26-547)
T2 construct: extracellular domain; also called Eph receptor extracellular region-SEAP-His protein; not shown: secretory alkaline phosphatase (SEAP); histidine tag
T2 sequence (looked up): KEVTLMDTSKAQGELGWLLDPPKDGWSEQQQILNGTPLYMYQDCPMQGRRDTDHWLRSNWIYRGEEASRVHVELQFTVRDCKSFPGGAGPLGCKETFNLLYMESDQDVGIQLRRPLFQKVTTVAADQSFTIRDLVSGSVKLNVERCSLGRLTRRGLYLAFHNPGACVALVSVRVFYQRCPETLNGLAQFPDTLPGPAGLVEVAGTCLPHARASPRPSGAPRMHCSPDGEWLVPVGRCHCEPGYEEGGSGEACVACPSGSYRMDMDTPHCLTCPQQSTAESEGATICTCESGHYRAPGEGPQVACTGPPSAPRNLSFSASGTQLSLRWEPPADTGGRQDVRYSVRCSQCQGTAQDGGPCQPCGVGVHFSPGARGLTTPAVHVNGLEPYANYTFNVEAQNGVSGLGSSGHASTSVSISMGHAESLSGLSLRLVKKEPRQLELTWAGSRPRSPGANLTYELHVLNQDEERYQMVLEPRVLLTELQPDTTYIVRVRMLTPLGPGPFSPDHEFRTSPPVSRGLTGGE

B1: humanized anti-EphA4 monoclonal antibody (antibody B) (antibody, human IgG2, V domains shown)
VH: QVQLVESGGGVVQPGRSLRLSCAVSGFSLTRFGVHWVRQAPGKGLEWVAVIWRGGSTDYNAAFMSRLTISKDNSKNTVYLQMNSLRAEDTAVYYCAKESLFGVYYDYGYYSMDYWGQGTTVTVSS
VL: DIQMTQSPSSLSASVGDRVTITCRASQEISGYLSWLQQKPGKAPKRLIYAASTLDSGVPSRFSGSRSGTEYTLTISSLQPEDFATYYCLQYASYPLTFGGGTKVEIKR
notes: expressed in Expi293F cells; also called humanized antibody of antibody A; HK2-42 / L1-8
B2: mouse anti-EphA4 monoclonal antibody (antibody A) (antibody, mouse IgG1, kappa, V domains shown)
VH: QVQLKQSGPSLVQPSQSLSITCTVSGFSLTRYGVHWVRQSPGKGLEWLGVIWRGGSTDYNAAFMSRLSITKDNSKSQVFFKMNSLQADDTAIYYCAKESLFGVYYDYGYYSMDYWGQGTSVTVSS
VL: DIQMTQSPSSLSASLGERVSLTCRASQEISGYLSWLQQKPDGTIKRLIYAASTLDSGVPKRFSGSRSGSDYSLTISSLESEDFADYYCLQYASYPLTFGAGTKLELKR
notes: purified from hybridoma supernatant

Legend:
[1] = target: T1, human EphB4 extracellular …; experiment: ELISA: SEAP-His proteins (1 nM) captured on anti-6-His antibody, antibody B 10 µg/mL with human IgG 100 µg/mL, HRP anti-human IgG, OD450 as % of human EphA4-SEAP-His
[2] = target: T2, human EphA1 extracellular …; experiment: as above
[3] = target: T3, human EphA4 extracellular region-SEAP-His protein (human, UniProt P54764 20-547); experiment: SPR (Biacore T200): human EphA4 extracellular region-SEAP-His captured on anti-His antibody, antibody B 1.6-100 nM as analyte, 1:1 fit
T3 construct: also called human EphA4 extracellular region-SEAP-His 10; not shown: secretory alkaline phosphatase (SEAP); histidine tag
Protocol: The binding affinity of antibody B obtained in Example 1 against human EphA4 was determined by surface plasmon resonance (SPR method) employing Biacore T200 (GE Healthcare). First, anti-His antibodies (GE Healthcare, 28-9950-56) were fixed to a sensor chip CMS. Fixation was carried out by amine coupling method employing N-hydroxysuccinimide (NHS) and N-ethyl-N′-(3-dimethylaminopropyl) carbodiimide hydrochloride salt (EDC), and ethanolamine was employed for blocking (the sensor chip and reagents for fixation are all from GE Healthcare). This was diluted with the fixation buffer (10 mM sodium acetate, pH 4.5) to 3.5 μg/mL, and fixed onto the sensor chip according to the protocol accompanying Biacore T200. Human EphA4 extracellular region-SEAP-His 10 was diluted with the running buffer HBS-EP (GE Healthcare, BR-1001-88), and the solution was sent and captured onto the flow cell for 120 seconds (about 10 RU of captured amount). […] Fitting analysis by 1:1 binding model employing the software accompanying the system, BIA evaluation software, was carried out against the binding reaction curve obtained, and the affinity (KD=kd/ka) against human EphA4 was calculated.

MBP = experiment: ELISA: human EphA4 domain-MBP-His proteins (10 nM) captured on anti-6-His antibody, antibody A 10 nM, HRP anti-mouse IgG Fc fragment antibody, OD450-OD650
Protocol: For antibody A, the evaluation of binding activity with various domains in human EphA4 was carried cut according to the following steps.
Rabbit anti-6-His antibodies (Bethyl Laboratories) were coated onto the wells of a 96-well plate (Nunc). After incubating at 4° C. overnight, the wells were blocked at room temperature for 1 hour by 1% Block Ace (DS Pharma Biomedical). After washing twice with 0.02% Tween 20/PBS (Nacalai Tesque), human EphA4 extracellular region-MBP-His protein, human EphA4 ligand binding domain-MBP-His protein, human EphA4 fibronectin type III domain 1-NBP-His protein, and human EphA4 fibronectin type III domain 2-MBP-His protein (final concentration 10 nM) were seeded into the wells, and incubated at room temperature for 1 hour. After washing 3 times, antibody A (final concentration 10 nM) was supplemented to the wells, and incubated at room temperature for 1 hour. Horseradish peroxidase-labeled goat anti-mouse IgG Fcγ fragment antibody (Jackson ImmunoResearch Laboratories) was added, and incubated at room temperature for 1 hour. After washing 5 times, TMB solution (KPL) was added to the wells, and upon confirmation of modest coloring, an equal amount of quenching solution (2 N H₂SO₄, Wako Pure Chemicals) was added to the wells, and absorbance at 450 nm and 650 nm were read by a microplate reader (PerkinElmer).

T3 sequence (P54764 20-547): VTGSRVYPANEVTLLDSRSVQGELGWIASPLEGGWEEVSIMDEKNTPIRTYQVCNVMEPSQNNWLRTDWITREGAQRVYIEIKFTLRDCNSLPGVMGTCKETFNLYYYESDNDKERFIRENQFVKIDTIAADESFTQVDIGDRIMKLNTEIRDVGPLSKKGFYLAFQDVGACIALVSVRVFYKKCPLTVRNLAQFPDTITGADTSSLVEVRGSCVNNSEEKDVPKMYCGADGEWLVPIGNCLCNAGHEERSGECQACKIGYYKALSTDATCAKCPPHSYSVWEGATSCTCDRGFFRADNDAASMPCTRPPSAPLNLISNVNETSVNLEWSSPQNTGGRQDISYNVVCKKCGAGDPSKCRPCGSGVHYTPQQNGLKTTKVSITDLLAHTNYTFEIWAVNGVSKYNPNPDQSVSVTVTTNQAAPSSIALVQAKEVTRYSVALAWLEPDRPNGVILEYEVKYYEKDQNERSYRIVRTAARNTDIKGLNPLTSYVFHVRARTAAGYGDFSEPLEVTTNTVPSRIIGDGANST

Binder	binding result [1]	binding result [2]	koff [3]	kon [3]	binding result (MBP)
B1	no binding (tested: 10 µg/mL)	no binding (tested: 10 µg/mL)	0.000494 s⁻¹	370000 M⁻¹ s⁻¹	–
B2	–	–	–	–	no binding (tested: 10 nM)
